According to US20240025978A1 (BIOVERATIV USA, published 2024):

Target: T1, activated human complement C1s (Homo sapiens, UniProt P09871 16-688)
T1 sequence: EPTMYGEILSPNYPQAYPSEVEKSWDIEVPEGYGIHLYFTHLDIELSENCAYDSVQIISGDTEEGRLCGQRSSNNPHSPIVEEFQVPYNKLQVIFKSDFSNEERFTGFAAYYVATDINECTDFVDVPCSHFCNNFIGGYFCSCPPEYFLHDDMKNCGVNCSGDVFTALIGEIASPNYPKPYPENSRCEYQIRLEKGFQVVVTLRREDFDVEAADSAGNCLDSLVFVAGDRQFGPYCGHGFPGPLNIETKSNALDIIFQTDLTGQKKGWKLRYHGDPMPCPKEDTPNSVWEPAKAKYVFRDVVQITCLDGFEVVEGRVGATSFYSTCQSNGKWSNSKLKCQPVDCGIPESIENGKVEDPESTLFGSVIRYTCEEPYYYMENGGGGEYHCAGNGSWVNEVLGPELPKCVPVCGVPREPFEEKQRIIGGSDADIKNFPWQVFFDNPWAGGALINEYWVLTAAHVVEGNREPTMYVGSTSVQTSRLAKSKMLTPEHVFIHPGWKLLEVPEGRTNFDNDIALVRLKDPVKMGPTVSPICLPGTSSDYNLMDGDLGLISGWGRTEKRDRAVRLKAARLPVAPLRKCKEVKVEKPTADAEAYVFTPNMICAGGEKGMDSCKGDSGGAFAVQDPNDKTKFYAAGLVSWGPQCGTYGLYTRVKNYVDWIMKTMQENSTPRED
Experiment: cell-based or functional assay

- percent CP (Wieslab classical pathway assay), population PK/PD model, typical IC50: 96.4 µg/mL
B1: SAR445088 (antibody, human IgG4 S228P, kappa, V domains shown)
VH: QVQLVQSGAEVKKPGASVKLSCTASGFNIKDDYIHWVKQAPGQGLEWIGRIDPADGHTKYAPKFQVKVTITADTSTSTAYLELSSLRSEDTAVYYCARYGYGREVFDYWGQGTTVTVSS
VL: DIVLTQSPDSLAVSLGERATISCKASQSVDYDGDSYMNWYQQKPGQPPKILIYDASNLESGIPARFSGSGSGTDFTLTISSLEPEDFAIYYCQQSNEDPWTFGGGTKVEIKR
- CH50 (50% hemolytic complement activity, liposome-based assay), population PK/PD model, typical IC50: 16.6 µg/mL
